Data published in US20180155451A1 (published 2018).

T1: FcγRIIa R (human, UniProt P12318 34-217)
T1 construct: extracellular domain; also called FcgRIIa R type; 2aR
T1 sequence (looked up): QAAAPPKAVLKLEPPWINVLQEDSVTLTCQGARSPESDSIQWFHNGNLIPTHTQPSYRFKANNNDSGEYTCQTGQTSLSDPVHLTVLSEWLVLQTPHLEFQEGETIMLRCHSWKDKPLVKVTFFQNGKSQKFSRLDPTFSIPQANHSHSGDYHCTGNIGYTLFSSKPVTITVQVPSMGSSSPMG


biological target: T1, FcγRIIa R; test: SPR Biacore; vs GpH7-A5/GpH7-B3/GpL16-k0 =100

Row | He/Con_2aR | Binder
1 | 156 % of control | GpH7-A5/GpH7-B3 variant G237_09D/GpL16-k0 (antibody, human IgG1, kappa, also called He Ab G237_09D) heavy 1: not shown heavy 2: not shown light: DIVMTQSPLSLPVTPGEPASISCQASESLVHSNRNTYLHWYLQKPGQSPQLLIYKVSNRFSGVPDRFSGSGSGTDFTLKISRVEAEDVGVYYCSQNTHVPPTFGQGTKVEIERTVAAPSVFIFPPSDEQLKSGTASVVCLLNNFYPREAKVQWKVDNALQSGNSQESVTEQDSKDSTYSLSSTLTLSKADYEKHKVYACEVTHQGLSSPVTKSFNRGEC
2 | 109 % of control | GpH7-A5/GpH7-B3 variant I332_06M/GpL16-k0 (antibody, human IgG1, kappa, also called He Ab I332_06M) heavy 1: not shown heavy 2: not shown light: DIVMTQSPLSLPVTPGEPASISCQASESLVHSNRNTYLHWYLQKPGQSPQLLIYKVSNRFSGVPDRFSGSGSGTDFTLKISRVEAEDVGVYYCSQNTHVPPTFGQGTKVEIERTVAAPSVFIFPPSDEQLKSGTASVVCLLNNFYPREAKVQWKVDNALQSGNSQESVTEQDSKDSTYSLSSTLTLSKADYEKHKVYACEVTHQGLSSPVTKSFNRGEC
3 | 135 % of control | GpH7-A5/GpH7-B3 variant K326_04F/GpL16-k0 (antibody, human IgG1, kappa, also called He Ab K326_04F) heavy 1: not shown heavy 2: not shown light: DIVMTQSPLSLPVTPGEPASISCQASESLVHSNRNTYLHWYLQKPGQSPQLLIYKVSNRFSGVPDRFSGSGSGTDFTLKISRVEAEDVGVYYCSQNTHVPPTFGQGTKVEIERTVAAPSVFIFPPSDEQLKSGTASVVCLLNNFYPREAKVQWKVDNALQSGNSQESVTEQDSKDSTYSLSSTLTLSKADYEKHKVYACEVTHQGLSSPVTKSFNRGEC
4 | 138 % of control | GpH7-A5/GpH7-B3 variant G237_20W/GpL16-k0 (antibody, human IgG1, kappa, also called He Ab G237_20W) heavy 1: not shown heavy 2: not shown light: DIVMTQSPLSLPVTPGEPASISCQASESLVHSNRNTYLHWYLQKPGQSPQLLIYKVSNRFSGVPDRFSGSGSGTDFTLKISRVEAEDVGVYYCSQNTHVPPTFGQGTKVEIERTVAAPSVFIFPPSDEQLKSGTASVVCLLNNFYPREAKVQWKVDNALQSGNSQESVTEQDSKDSTYSLSSTLTLSKADYEKHKVYACEVTHQGLSSPVTKSFNRGEC
5 | 110 % of control | GpH7-A5/GpH7-B3 variant I336_08L/GpL16-k0 (antibody, human IgG1, kappa, also called He Ab I336_08L) heavy 1: not shown heavy 2: not shown light: DIVMTQSPLSLPVTPGEPASISCQASESLVHSNRNTYLHWYLQKPGQSPQLLIYKVSNRFSGVPDRFSGSGSGTDFTLKISRVEAEDVGVYYCSQNTHVPPTFGQGTKVEIERTVAAPSVFIFPPSDEQLKSGTASVVCLLNNFYPREAKVQWKVDNALQSGNSQESVTEQDSKDSTYSLSSTLTLSKADYEKHKVYACEVTHQGLSSPVTKSFNRGEC
6 | 129 % of control | GpH7-A5/GpH7-B3 variant G237_15Y/GpL16-k0 (antibody, human IgG1, kappa, also called He Ab G237_15Y) heavy 1: not shown heavy 2: not shown light: DIVMTQSPLSLPVTPGEPASISCQASESLVHSNRNTYLHWYLQKPGQSPQLLIYKVSNRFSGVPDRFSGSGSGTDFTLKISRVEAEDVGVYYCSQNTHVPPTFGQGTKVEIERTVAAPSVFIFPPSDEQLKSGTASVVCLLNNFYPREAKVQWKVDNALQSGNSQESVTEQDSKDSTYSLSSTLTLSKADYEKHKVYACEVTHQGLSSPVTKSFNRGEC
7 | 104 % of control | GpH7-A5/GpH7-B3 variant I336_18N/GpL16-k0 (antibody, human IgG1, kappa, also called He Ab I336_18N) heavy 1: not shown heavy 2: not shown light: DIVMTQSPLSLPVTPGEPASISCQASESLVHSNRNTYLHWYLQKPGQSPQLLIYKVSNRFSGVPDRFSGSGSGTDFTLKISRVEAEDVGVYYCSQNTHVPPTFGQGTKVEIERTVAAPSVFIFPPSDEQLKSGTASVVCLLNNFYPREAKVQWKVDNALQSGNSQESVTEQDSKDSTYSLSSTLTLSKADYEKHKVYACEVTHQGLSSPVTKSFNRGEC
8 | 141 % of control | GpH7-A5/GpH7-B3 variant K326_03V/GpL16-k0 (antibody, human IgG1, kappa, also called He Ab K326_03V) heavy 1: not shown heavy 2: not shown light: DIVMTQSPLSLPVTPGEPASISCQASESLVHSNRNTYLHWYLQKPGQSPQLLIYKVSNRFSGVPDRFSGSGSGTDFTLKISRVEAEDVGVYYCSQNTHVPPTFGQGTKVEIERTVAAPSVFIFPPSDEQLKSGTASVVCLLNNFYPREAKVQWKVDNALQSGNSQESVTEQDSKDSTYSLSSTLTLSKADYEKHKVYACEVTHQGLSSPVTKSFNRGEC
9 | 121 % of control | GpH7-A5/GpH7-B3 variant G237_13S/GpL16-k0 (antibody, human IgG1, kappa, also called He Ab G237_13S) heavy 1: not shown heavy 2: not shown light: DIVMTQSPLSLPVTPGEPASISCQASESLVHSNRNTYLHWYLQKPGQSPQLLIYKVSNRFSGVPDRFSGSGSGTDFTLKISRVEAEDVGVYYCSQNTHVPPTFGQGTKVEIERTVAAPSVFIFPPSDEQLKSGTASVVCLLNNFYPREAKVQWKVDNALQSGNSQESVTEQDSKDSTYSLSSTLTLSKADYEKHKVYACEVTHQGLSSPVTKSFNRGEC
10 | 105 % of control | GpH7-A5/GpH7-B3 variant I332_14T/GpL16-k0 (antibody, human IgG1, kappa, also called He Ab I332_14T) heavy 1: not shown heavy 2: not shown light: DIVMTQSPLSLPVTPGEPASISCQASESLVHSNRNTYLHWYLQKPGQSPQLLIYKVSNRFSGVPDRFSGSGSGTDFTLKISRVEAEDVGVYYCSQNTHVPPTFGQGTKVEIERTVAAPSVFIFPPSDEQLKSGTASVVCLLNNFYPREAKVQWKVDNALQSGNSQESVTEQDSKDSTYSLSSTLTLSKADYEKHKVYACEVTHQGLSSPVTKSFNRGEC
11 | 116 % of control | GpH7-A5/GpH7-B3 variant G237_10E/GpL16-k0 (antibody, human IgG1, kappa, also called He Ab G237_10E) heavy 1: not shown heavy 2: not shown light: DIVMTQSPLSLPVTPGEPASISCQASESLVHSNRNTYLHWYLQKPGQSPQLLIYKVSNRFSGVPDRFSGSGSGTDFTLKISRVEAEDVGVYYCSQNTHVPPTFGQGTKVEIERTVAAPSVFIFPPSDEQLKSGTASVVCLLNNFYPREAKVQWKVDNALQSGNSQESVTEQDSKDSTYSLSSTLTLSKADYEKHKVYACEVTHQGLSSPVTKSFNRGEC
12 | 109 % of control | GpH7-A5/GpH7-B3 variant H268_03V/GpL16-k0 (antibody, human IgG1, kappa, also called He Ab H268_03V) heavy 1: not shown heavy 2: not shown light: DIVMTQSPLSLPVTPGEPASISCQASESLVHSNRNTYLHWYLQKPGQSPQLLIYKVSNRFSGVPDRFSGSGSGTDFTLKISRVEAEDVGVYYCSQNTHVPPTFGQGTKVEIERTVAAPSVFIFPPSDEQLKSGTASVVCLLNNFYPREAKVQWKVDNALQSGNSQESVTEQDSKDSTYSLSSTLTLSKADYEKHKVYACEVTHQGLSSPVTKSFNRGEC
13 | 147 % of control | GpH7-A5/GpH7-B3 variant K326_07I/GpL16-k0 (antibody, human IgG1, kappa, also called He Ab K326_07I) heavy 1: not shown heavy 2: not shown light: DIVMTQSPLSLPVTPGEPASISCQASESLVHSNRNTYLHWYLQKPGQSPQLLIYKVSNRFSGVPDRFSGSGSGTDFTLKISRVEAEDVGVYYCSQNTHVPPTFGQGTKVEIERTVAAPSVFIFPPSDEQLKSGTASVVCLLNNFYPREAKVQWKVDNALQSGNSQESVTEQDSKDSTYSLSSTLTLSKADYEKHKVYACEVTHQGLSSPVTKSFNRGEC
14 | 106 % of control | GpH7-A5/GpH7-B3 variant I336_06M/GpL16-k0 (antibody, human IgG1, kappa, also called He Ab I336_06M) heavy 1: not shown heavy 2: not shown light: DIVMTQSPLSLPVTPGEPASISCQASESLVHSNRNTYLHWYLQKPGQSPQLLIYKVSNRFSGVPDRFSGSGSGTDFTLKISRVEAEDVGVYYCSQNTHVPPTFGQGTKVEIERTVAAPSVFIFPPSDEQLKSGTASVVCLLNNFYPREAKVQWKVDNALQSGNSQESVTEQDSKDSTYSLSSTLTLSKADYEKHKVYACEVTHQGLSSPVTKSFNRGEC
15 | 105 % of control | GpH7-A5/GpH7-B3 variant H268_12R/GpL16-k0 (antibody, human IgG1, kappa, also called He Ab H268_12R) heavy 1: not shown heavy 2: not shown light: DIVMTQSPLSLPVTPGEPASISCQASESLVHSNRNTYLHWYLQKPGQSPQLLIYKVSNRFSGVPDRFSGSGSGTDFTLKISRVEAEDVGVYYCSQNTHVPPTFGQGTKVEIERTVAAPSVFIFPPSDEQLKSGTASVVCLLNNFYPREAKVQWKVDNALQSGNSQESVTEQDSKDSTYSLSSTLTLSKADYEKHKVYACEVTHQGLSSPVTKSFNRGEC
16 | 113 % of control | GpH7-A5/GpH7-B3 variant H268_20W/GpL16-k0 (antibody, human IgG1, kappa, also called He Ab H268_20W) heavy 1: not shown heavy 2: not shown light: DIVMTQSPLSLPVTPGEPASISCQASESLVHSNRNTYLHWYLQKPGQSPQLLIYKVSNRFSGVPDRFSGSGSGTDFTLKISRVEAEDVGVYYCSQNTHVPPTFGQGTKVEIERTVAAPSVFIFPPSDEQLKSGTASVVCLLNNFYPREAKVQWKVDNALQSGNSQESVTEQDSKDSTYSLSSTLTLSKADYEKHKVYACEVTHQGLSSPVTKSFNRGEC
17 | 110 % of control | GpH7-A5/GpH7-B3 variant H268_15Y/GpL16-k0 (antibody, human IgG1, kappa, also called He Ab H268_15Y) heavy 1: not shown heavy 2: not shown light: DIVMTQSPLSLPVTPGEPASISCQASESLVHSNRNTYLHWYLQKPGQSPQLLIYKVSNRFSGVPDRFSGSGSGTDFTLKISRVEAEDVGVYYCSQNTHVPPTFGQGTKVEIERTVAAPSVFIFPPSDEQLKSGTASVVCLLNNFYPREAKVQWKVDNALQSGNSQESVTEQDSKDSTYSLSSTLTLSKADYEKHKVYACEVTHQGLSSPVTKSFNRGEC
18 | 124 % of control | GpH7-A5/GpH7-B3 variant H268_01G/GpL16-k0 (antibody, human IgG1, kappa, also called He Ab H268_01G) heavy 1: not shown heavy 2: not shown light: DIVMTQSPLSLPVTPGEPASISCQASESLVHSNRNTYLHWYLQKPGQSPQLLIYKVSNRFSGVPDRFSGSGSGTDFTLKISRVEAEDVGVYYCSQNTHVPPTFGQGTKVEIERTVAAPSVFIFPPSDEQLKSGTASVVCLLNNFYPREAKVQWKVDNALQSGNSQESVTEQDSKDSTYSLSSTLTLSKADYEKHKVYACEVTHQGLSSPVTKSFNRGEC
19 | 106 % of control | GpH7-A5/GpH7-B3 variant H268_05P/GpL16-k0 (antibody, human IgG1, kappa, also called He Ab H268_05P) heavy 1: not shown heavy 2: not shown light: DIVMTQSPLSLPVTPGEPASISCQASESLVHSNRNTYLHWYLQKPGQSPQLLIYKVSNRFSGVPDRFSGSGSGTDFTLKISRVEAEDVGVYYCSQNTHVPPTFGQGTKVEIERTVAAPSVFIFPPSDEQLKSGTASVVCLLNNFYPREAKVQWKVDNALQSGNSQESVTEQDSKDSTYSLSSTLTLSKADYEKHKVYACEVTHQGLSSPVTKSFNRGEC
20 | 121 % of control | GpH7-A5/GpH7-B3 variant G237_19Q/GpL16-k0 (antibody, human IgG1, kappa, also called He Ab G237_19Q) heavy 1: not shown heavy 2: not shown light: DIVMTQSPLSLPVTPGEPASISCQASESLVHSNRNTYLHWYLQKPGQSPQLLIYKVSNRFSGVPDRFSGSGSGTDFTLKISRVEAEDVGVYYCSQNTHVPPTFGQGTKVEIERTVAAPSVFIFPPSDEQLKSGTASVVCLLNNFYPREAKVQWKVDNALQSGNSQESVTEQDSKDSTYSLSSTLTLSKADYEKHKVYACEVTHQGLSSPVTKSFNRGEC
21 | 100 % of control | GpH7-A5/GpH7-B3 variant H268_11K/GpL16-k0 (antibody, human IgG1, kappa, also called He Ab H268_11K) heavy 1: not shown heavy 2: not shown light: DIVMTQSPLSLPVTPGEPASISCQASESLVHSNRNTYLHWYLQKPGQSPQLLIYKVSNRFSGVPDRFSGSGSGTDFTLKISRVEAEDVGVYYCSQNTHVPPTFGQGTKVEIERTVAAPSVFIFPPSDEQLKSGTASVVCLLNNFYPREAKVQWKVDNALQSGNSQESVTEQDSKDSTYSLSSTLTLSKADYEKHKVYACEVTHQGLSSPVTKSFNRGEC
22 | 150 % of control | GpH7-A5/GpH7-B3 variant G237_18N/GpL16-k0 (antibody, human IgG1, kappa, also called He Ab G237_18N) heavy 1: not shown heavy 2: not shown light: DIVMTQSPLSLPVTPGEPASISCQASESLVHSNRNTYLHWYLQKPGQSPQLLIYKVSNRFSGVPDRFSGSGSGTDFTLKISRVEAEDVGVYYCSQNTHVPPTFGQGTKVEIERTVAAPSVFIFPPSDEQLKSGTASVVCLLNNFYPREAKVQWKVDNALQSGNSQESVTEQDSKDSTYSLSSTLTLSKADYEKHKVYACEVTHQGLSSPVTKSFNRGEC
